Consider 24 molecules from patent US8008547B2, “Glyphosate-N-acetyltransferase (GAT) genes” (E.I. duPont de Nemours, priority 2000, dated 2011).

Where a chain is given by its changes, count along the chain named.

The test system of one data set is soybean plants. The experiment in a line: Greenhouse glyphosate spray of T0 soybean plants expressing GAT transgenes (discoloration score). Type of data set: in vivo. The following applies: for number of events @ 3-6 / number of events @ 7-8: count in parentheses. As to the method:
Soybean plants expressing GAT variant transgenes were produced using the method of particle gun bombardment (see Klein et al. (1987) Nature 327:70-73) using a DuPont Biolistic PDS1000/He instrument. The selection agent used during the transformation process was hygromycin. Either the hygromycin selectable marker gene remained in the transgenic events or the hygromycin gene was excised by methods known in the art. DNA fragments were prepared with a synthetic constitutive promoter, a GAT variant and PinII terminator. The selectable marker gene, comprising the 35S CaMV promoter, HPT gene and NOS terminator, was cobombarded with the GAT gene variant as described above. Bombarded soybean embryogenic suspension tissue was cultured for one week in the absence of selection agent. Embryogenic suspension tissue was placed in liquid selection medium for 6 weeks. Putative transgenic suspension tissue was sampled for PCR analysis to determine the presence of the GAT gene. Putative transgenic suspension culture tissue was maintained in selection medium for 3 weeks to obtain enough tissue for plant regeneration. Suspension tissue was matured for 4 weeks using standard procedures; matured somatic embryos were desiccated for 4-7 days and then placed on germination induction medium for 2-4 weeks. Germinated plantlets were transferred to soil in cell pack trays for 3 weeks for acclimatization. Plantlets were potted to 10-inch pots in the greenhouse for evaluation of glyphosate resistance.
To determine the level of glyphosate resistance of transgenic soybeans expressing the GAT variant transgenes, T0 plants were sprayed with glyphosate (Roundup ULTRA MAX™) in the greenhouse. Plant resistance levels were evaluated by […] • 7=minor leaf/stem discoloration • 5=worse leaf/stem discoloration • 3=severely discolored plant or dying plant • 1=dead plant
One to four plants were sent to the greenhouse from each independent transgenic event. An additional 1-2 plants per event were grown in controlled environment growth chambers for seed production and were not sprayed with glyphosate. The greenhouse plants were sprayed at 1×, 2× or 4× glyphosate (1× glyphosate=26 ounces/acre of RoundUp ULTRA MAX™) 3-4 weeks after transfer to soil. The T0 plant discoloration scores with 2× and 4× spray rates are shown in Table 10 and Table 11, respectively.

Data set [1] can be described thus: Standard protocol for determination of kcat and KM (continuous spectrophotometric assay, Acetyl CoA hydrolysis at 235 nm). The following applies: purified protein, about 23° C., 0.2 mM acetyl CoA; for Kcat: 20 mM HEPES pH 6.8, 10% ethylene glycol; for Km: pH 6.8, glyphosate 0.125 to 10 mM. Type of data set: biochemical. The gist of the method:
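KM from initial rates over 0.125–10 mM glyphosate, fitted by Lineweaver-Burke transformation of Michaelis-Menten; kcat/KM computed as kcat divided by KM. Continuous spectrophotometric read of acetyl-CoA hydrolysis at 235 nm.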

B1: SEQ ID NO: 824: GAT gene variant expressed in transgenic soybean (nucleic acid)
DNA: ATGATAGAGGTGAAACCGATTAACGCAGAGGATACCTATGAACTAAGGCATAGAATACTCAGACCAAACCAGCCGATAGAAGCGTGTATGTTTGAAAGCGATTTACTTCGTGGTGCATTTCACTTAGGCGGCTTTTACAGGGGCAAACTGATTTCCATAGCTTCATTCCACCAGGCCGAGCACTCGGAACTCCAAGGCCAGAAACAGTACCAGCTCCGAGGTATGGCTACCTTGGAAGGTTATCGTGAGCAGAAAGCGGGATCAACTCTAGTTAAACACGCTGAAGAAATCCTTCGTAAGAGGGGGGCGGACATGCTTTGGTGTAATGCGAGGACATCCGCCTCAGGCTACTACAAAAAGTTAGGCTTCAGCGAGCAGGGAGAGATATTTGACACGCCGCCAGTAGGACCTCACATCCTGATGTATAAAAGGATCACATAA
modifications: Synthetic DNA Sequence; CDS (1)...(441); 18-28D9c
notes: GAT gene variant expressed in transgenic soybean
B1: the “% EVENTS @ 7-8” value in the data set with soybean plants (10 days after 2X glyphosate (1× = 26 ounces/acre), 7=minor leaf/stem discoloration) is 8%. The “% EVENTS @ 3-6” value in the data set with soybean plants (10 days after 2X glyphosate, 5=worse discoloration, 3=severely discolored or dying) is given as 74%. Besides, in the data set on soybean plants (10 days after 2X glyphosate), the “number of events @ 3-6” value was determined as 23 and the “number of events @ 7-8” value came out at 3. Besides, in the data set on soybean plants (10 days after 4X glyphosate), the “% EVENTS @ 3-6” value is on record as 43%, the “% EVENTS @ 7-8” value was 8%, the “number of events @ 3-6” value is given as 10 and the “number of events @ 7-8” value is given as 2.

B2: SEQ ID NO: 264: GAT polypeptide (protein)
chain: MIEVKPINAEDTYEIRHRILRPNQPLEACKYETDLLRGAFHLGGYYRGKLVSIASFHQAEHPELEGQRQYQLRGMATLEGYREQKAGSTLIRHAEELLRKKGADLLWCNARTSASGYYKKLGFSEQGEVYDIPPTGPHILMYKKLT
modifications: 13_12G6
notes: GAT polypeptide
Take B2: in data set [1], the Kcat stood at 0.868 s⁻¹ and the Km was found to be 1200 µM.

B3: SEQ ID NO: 337: GAT polypeptide (protein)
chain: B2 chain with R37G, A39T, V51I, R68K, G80E
modifications: 15_6D3
notes: GAT polypeptide
Turning to B3, in data set [1], the Kcat was found to be 1.43 s⁻¹ and the Km is 1400 µM.

B4: SEQ ID NO: 354: GAT polypeptide (protein)
chain: B2 chain with K30M, R37G, A39T, G48D, K49R, V51I, P62S, R68K, K119E, T135I
modifications: 2_8C3
notes: GAT polypeptide
For the molecule B4, in data set [1], the Kcat came to 0.413 s⁻¹ and the Km amounted to 1500 µM.

B5: SEQ ID NO: 265: GAT polypeptide (protein)
chain: B2 chain with R37G, G38S, A39T, V51I, H57N, R68K, I132T, T135V
modifications: 14_2A5
notes: GAT polypeptide
B5: in data set [1], the Kcat stood at 4.68 s⁻¹ and the Km was found to be 1600 µM.

B6: SEQ ID NO: 348: GAT polypeptide (protein)
chain: B2 chain with K30M, R37G, A39T, V51I, P62S, R68K, A114V, K119E, T135I
modifications: 20F2
notes: GAT polypeptide
With B6, in data set [1], the Kcat is 0.065 s⁻¹ and the Km is 1900 µM.

B7: SEQ ID NO: 339: GAT polypeptide (protein)
chain: B2 chain with R37G, A39T, V51I, R68K, G80E, K100R, T135V
modifications: 15_9F6
notes: GAT polypeptide
As for B7, in data set [1], the Kcat came out at 0.993 s⁻¹ and the Km worked out at 1100 µM.

B8: SEQ ID NO: 356: GAT polypeptide (protein)
chain: B2 chain with K30M, Y31F, R37G, R47Q, V51I, P62S, R68K, A114V, T135I
modifications: 30G8
notes: GAT polypeptide
With B8, in data set [1], the Kcat came to 0.17 s⁻¹ and the Km was 1600 µM.

B9: SEQ ID NO: 338: GAT polypeptide (protein)
chain: B2 chain with R68K, G80E, E128K, T135V
modifications: 15_6G11
notes: GAT polypeptide
Regarding B9, in data set [1], the Kcat turned out to be 0.615 s⁻¹ and the Km amounted to 900 µM.

B10: SEQ ID NO: 343: GAT polypeptide (protein)
chain: B2 chain with N8S, K30M, R37G, R47Q, V51I, P62S, R68K, A114V, K119E, T135I
modifications: 17C12
notes: GAT polypeptide
On to B10, for which, in data set [1], the Kcat is 0.0533 s⁻¹ and the Km came out at 1400 µM.

B11: SEQ ID NO: 340: GAT polypeptide (protein)
chain: B2 chain with R37G, A39T, V51I, Q58K, P62S, Q67E, R68E, H93Y, A114V, T135I
modifications: 15F5
notes: GAT polypeptide
Consider B11, for which, in data set [1], the Kcat was 0.0083 s⁻¹ and the Km is 2900 µM.

B12: SEQ ID NO: 342: GAT polypeptide (protein)
chain: B2 chain with E3D, R37G, A39T, R47Q, V51I, P62S, R68K, A114V, K119E, T135I
modifications: 16H3
notes: GAT polypeptide
Turning to B12, in data set [1], the Kcat was 0.0583 s⁻¹ and the Km stood at 2900 µM.

B13: SEQ ID NO: 349: GAT polypeptide (protein)
chain: B2 chain with R37G, R47Q, V51I, P62S, R68K, A114V, T135I
modifications: 21E11
notes: GAT polypeptide
In the case of B13, in data set [1], the Kcat is 0.0183 s⁻¹ and the Km worked out at 700 µM.

B14: SEQ ID NO: 353: GAT polypeptide (protein)
chain: B2 chain with R37G, A39T, V51I, Q58N, P62S, R68K, K119E, T135I, T146A
modifications: 24E7
notes: GAT polypeptide
On to B14, for which, in data set [1], the Kcat is 0.148 s⁻¹ and the Km is 900 µM.

B15: SEQ ID NO: 351: GAT polypeptide (protein)
chain: B2 chain with R37G, A39T, G48D, K49R, V51I, P62S, R68K, A114V, T135I
modifications: 24C1
notes: GAT polypeptide
Turning to B15, in data set [1], the Kcat is 0.0283 s⁻¹ and the Km is 900 µM.

B16: SEQ ID NO: 266: GAT polypeptide (protein)
chain: B2 chain with R68K, I132T
modifications: 14_2C1
notes: GAT polypeptide
With B16, in data set [1], the Kcat turned out to be 2.223 s⁻¹ and the Km stood at 3100 µM.

B17: SEQ ID NO: 344: GAT polypeptide (protein)
chain: B2 chain with R37G, A39T, V51I, Q58K, P62S, R68K, K119E, T135I, T146A
modifications: 18D6
notes: GAT polypeptide
As for B17, in data set [1], the Kcat was 0.16 s⁻¹ and the Km worked out at 1200 µM.

B18: SEQ ID NO: 345: GAT polypeptide (protein)
chain: MIEVKPINAEDTYEIRHRILRPNQPLEACKYETDLLGGTFHLGGYYRGKLICIASFHQAEHSELEGQKQYQLRGMATLEGYREQKAGSTLIRHAEELLRKKGADLLWCNARTSVRGYYEKLGFSEQGGVYDIPPIGPHILMYKKLA
modifications: 19C6
notes: GAT polypeptide
As for B18, in data set [1], the Kcat was 0.0367 s⁻¹ and the Km worked out at 1100 µM.

B19: SEQ ID NO: 355: GAT polypeptide (protein)
chain: B18 chain with R47Q, C52S, I53T, E60G, Q84R, T112I, V114A, R115S, E119K, A146T
modifications: 2H3
notes: GAT polypeptide
On to B19, for which, in data set [1], the Kcat stood at 0.268 s⁻¹ and the Km is 900 µM.

B20: SEQ ID NO: 341: GAT polypeptide (protein)
chain: MIEVKPINAEDTYEIRHRILRPNQPLEACMYETDLLGGTLHLGGYYQGKLISIASFHKAEHSGLEGEEQYQLRGMATLEGYREQKAGSTLIRHAEELLRKKGADLLWCNARTSVSGYYEKLGFSEQGEVYDIPPIGPHILMYKKLT
modifications: 16A1
notes: GAT polypeptide
Take B20: in data set [1], the Kcat came out at 0.173 s⁻¹ and the Km turned out to be 2900 µM.

B21: SEQ ID NO: 350: GAT polypeptide (protein)
chain: B20 chain with L40F, G63E, E67Q, E68K, V114A, T146A
modifications: 23H11
notes: GAT polypeptide
With B21, in data set [1], the Kcat is 0.118 s⁻¹ and the Km stood at 2200 µM.

B22: SEQ ID NO: 347: GAT polypeptide (protein)
chain: B18 chain with K30M, R47Q, C52S, Q58N, A103V, R115S, E119K, V129I
modifications: 20A12
notes: GAT polypeptide
With B22, in data set [1], the Kcat was found to be 0.0467 s⁻¹ and the Km is 1100 µM.

B23: SEQ ID NO: 346: GAT polypeptide (protein)
chain: B20 chain with R18C, L40F, G63E, E67Q, E68K, E119K
modifications: 19D5
notes: GAT polypeptide
On to B23, for which, in data set [1], the Kcat was determined as 0.0367 s⁻¹ and the Michaelis-Menten constant (Km) stood at 1700 µM.

B24: SEQ ID NO: 352: GAT polypeptide (protein)
chain: B18 chain with K30M, C52S, T112I, R115S, E119K
modifications: 24C6
notes: GAT polypeptide
Turning to B24, in data set [1], the Kcat came to 0.045 s⁻¹ and the Km stood at 1300 µM.

By Km is commonly meant the substrate concentration at which the rate is half of its maximum.
